Laboratory results from the supplement of paper PMC11316812.
± gives the standard deviation of the averaged measurements.

Tests used:
[1] = test system: hTERT-HMEC; test: percentage of EdU-negative (G0-arrested) nuclei per well, 72 h; higher = more G0 arrest; details: reference: sequence is the full UniProt precursor, the tested protein was the secreted form or ectodomain
[2] = test system: MCF7; test: as above; details: reference: sequence is the full UniProt precursor, the tested protein was the secreted form or ectodomain
[3] = protein concentration 0.0351429 µM
[4] = protein concentration 0.351429 µM
[5] = protein concentration 0.0225 µM
[6] = protein concentration 0.0357143 µM
[7] = protein concentration 0.357143 µM
[8] = protein concentration 0.0175 µM
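Also: secreted proteins added to cultured cells, EdU pulse at the end, nuclei found by Hoechst imaging, EdU status from nuclear versus surrounding ring intensity ratio, PBS as neutral control.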

Sequence	percentage of EdU-negative [1, 5] [%]	percentage of EdU-negative ([1]; protein concentration 0.225 µM) [%]	percentage of EdU-negative [2, 5] [%]	percentage of EdU-negative ([2]; protein concentration 0.225 µM) [%]	other results
MTGDCMPVLVLMAAVLTVTGAVPVARLRGALPDARGCHIAQFKSLSPQELQAFKRAKDALEESLLLKDCKCRSRLFPRTWDLRQLQVRERPVALEAELALTLKVLEATADTDPALGDVLDQPLHTLHHILSQLRACIQPQPTAGPRTRGRLHHWLHRLQEAPKKESPGCLEASVTFNLFRLLTRDLNCVASGDLCV [Q8IZI9]					percentage of EdU-negative [1, 3]: 6.75 ± 0.89%; percentage of EdU-negative [1, 4]: 10.9 ± 2.5%; percentage of EdU-negative [2, 3]: 24 ± 2.3%; percentage of EdU-negative [2, 4]: 28.6 ± 4%
MGPLPVCLPIMLLLLLPSLLLLLLLPGPGSGEASRILRVHRRGILELAGTVGCVGPRTPIAYMKYGCFCGLGGHGQPRDAIDWCCHGHDCCYTRAEEAGCSPKTERYSWQCVNQSVLCGPAENKCQELLCKCDQEIANCLAQTEYNLKYLFYPQFLCEPDSPKCD	7.05 ± 0.95	10.3 ± 2.1	29.3 ± 2.5	31.17 ± 0.13	
MESKGASSCRLLFCLLISATVFRPGLGWYTVNSAYGDTIIIPCRLDVPQNLMFGKWKYEKPDGSPVFIAFRSSTKKSVQYDDVPEYKDRLNLSENYTLSISNARISDEKRFVCMLVTEDNVFEAPTIVKVFKQPSKPEIVSKALFLETEQLKKLGDCISEDSYPDGNITWYRNGKVLHPLEGAVVIIFKKEMDPVTQLYTMTSTLEYKTTKADIQMPFTCSVTYYGPSGQKTIHSEQAVFDIYYPTEQVTIQVLPPKNAIKEGDNITLKCLGNGNPPPEEFLFYLPGQPEGIRSSNTYTLTDVRRNATGDYKCSLIDKKSMIASTAITVHYLDLSLNPSGEVTRQIGDALPVSCTISASRNATVVWMKDNIRLRSSPSFSSLHYQDAGNYVCETALQEVEGLKKRESLTLIVEGKPQIKMTKKTDPSGLSKTIICHVEGFPKPAIQWTITGSGSVINQTEESPYINGRYYSKIIISPEENVTLTCTAENQLERTVNSLNVSAISIPEHDEADEISDENREKVNDQAKLIVGIVVGLLLAALVAGVVYWLYMKKSKTASKHVNKDLGNMEENKKLEENNHKTEA					percentage of EdU-negative [1, 6]: 4.83 ± 0.2%; percentage of EdU-negative [1, 7]: 5.08 ± 0.77%; percentage of EdU-negative [2, 6]: 26.8 ± 1.2%; percentage of EdU-negative [2, 7]: 25.13 ± 0.15%
MGAYARASGVCARGCLDSAGPWTMSRALRPPLPPLCFFLLLLAAAGARAGGYETCPTVQPNMLNVHLLPHTHDDVGWLKTVDQYFYGIKNDIQHAGVQYILDSVISALLADPTRRFIYVEIAFFSRWWHQQTNATQEVVRDLVRQGRLEFANGGWVMNDEAATHYGAIVDQMTLGLRFLEDTFGNDGRPRVAWHIDPFGHSREQASLFAQMGFDGFFFGRLDYQDKWVRMQKLEMEQVWRASTSLKPPTADLFTGVLPNGYNPPRNLCWDVLCVDQPLVEDPRSPEYNAKELVDYFLNVATAQGRYYRTNHTVMTMGSDFQYENANMWFKNLDKLIRLVNAQQAKGSSVHVLYSTPACYLWELNKANLTWSVKHDDFFPYADGPHQFWTGYFSSRPALKRYERLSYNFLQVCNQLEALVGLAANVGPYGSGDSAPLNEAMAVLQHHDAVSGTSRQHVANDYARQLAAGWGPCEVLLSNALARLRGFKDHFTFCQQLNISICPLSQTAARFQVIVYNPLGRKVNWMVRLPVSEGVFVVKDPNGRTVPSDVVIFPSSDSQAHPPELLFSASLPALGFSTYSVAQVPRWKPQARAPQPIPRRSWSPALTIENEHIRATFDPDTGLLMEIMNMNQQLLLPVRQTFFWYNASIGDNESDQASGAYIFRPNQQKPLPVSRWAQIHLVKTPLVQEVHQNFSAWCSQVVRLYPGQRHLELEWSVGPIPVGDTWGKEVISRFDTPLETKGRFYTDSNGREILERRRDYRPTWKLNQTEPVAGNYYPVNTRIYITDGNMQLTVLTDRSQGGSSLRDGSLELMVHRRLLKDDGRGVSEPLMENGSGAWVRGRHLVLLDTAQAAAAGHRLLAEQEVLAPQVVLAPGGGAAYNLGAPPRTQFSGLRRDLPPSVHLLTLASWGPEMVLLRLEHQFAVGEDSGRNLSAPVTLNLRDLFSTFTITRLQETTLVANQLREAASRLKWTTNTGPTPHQTPYQLDPANITLEPMEIRTFLASVQWKEVDG	4.43 ± 0.26	5.51 ± 0.44	24.7 ± 1.5	24.7 ± 1.2	
MGPPSSSGFYVSRAVALLLAGLVAALLLALAVLAALYGHCERVPPSELPGLRDLEAESSPPLRQKPTPTPKPSSARELAVTTTPSNWRPPGPWDQLRLPPWLVPLHYDLELWPQLRPDELPAGSLPFTGRVNITVRCTVATSRLLLHSLFQDCERAEVRGPLSPGTGNATVGRVPVDDVWFALDTEYMVLELSEPLKPGSSYELQLSFSGLVKEDLREGLFLNVYTDQGERRALLASQLEPTFARYVFPCFDEPALKATFNITMIHHPSYVALSNMPKLGQSEKEDVNGSKWTVTTFSTTPHMPTYLVAFVICDYDHVNRTERGKEIRIWARKDAIANGSADFALNITGPIFSFLEDLFNISYSLPKTDIIALPSFDNHAMENWGLMIFDESGLLLEPKDQLTEKKTLISYVVSHEIGHQWFGNLVTMNWWNNIWLNEGFASYFEFEVINYFNPKLPRNEIFFSNILHNILREDHALVTRAVAMKVENFKTSEIQELFDIFTYSKGASMARMLSCFLNEHLFVSALKSYLKTFSYSNAEQDDLWRHFQMAIDDQSTVILPATIKNIMDSWTHQSGFPVITLNVSTGVMKQEPFYLENIKNRTLLTSNDTWIVPILWIKNGTTQPLVWLDQSSKVFPEMQVSDSDHDWVILNLNMTGYYRVNYDKLGWKKLNQQLEKDPKAIPVIHRLQLIDDAFSLSKNNYIEIETALELTKYLAEEDEIIVWHTVLVNLVTRDLVSEVNIYDIYSLLKRYLLKRLNLIWNIYSTIIRENVLALQDDYLALISLEKLFVTACWLGLEDCLQLSKELFAKWVDHPENEIPYPIKDVVLCYGIALGSDKEWDILLNTYTNTTNKEEKIQLAYAMSCSKDPWILNRYMEYAISTSPFTSNETNIIEVVASSEVGRYVAKDFLVNNWQAVSKRYGTQSLINLIYTIGRTVTTDLQIVELQQFFSNMLEEHQRIRVHANLQTIKNENLKNKKLSARIAAWLRRNT [Q6Q4G3]					percentage of EdU-negative [1, 8]: 5.44 ± 0.3%; percentage of EdU-negative ([1]; protein concentration 0.175 µM): 16.6 ± 0.49%; percentage of EdU-negative [2, 8]: 22.3 ± 0.34%; percentage of EdU-negative ([2]; protein concentration 0.175 µM): 27.4 ± 4.3%
MAQRCVCVLALVAMLLLVFPTVSRSMGPRSGEHQRASRIPSQFSKEERVAMKEALKGAIQIPTVTFSSEKSNTTALAEFGKYIHKVFPTVVSTSFIQHEVVEEYSHLFTIQGSDPSLQPYLLMAHFDVVPAPEEGWEVPPFSGLERDGIIYGRGTLDDKNSVMALLQALELLLIRKYIPRRSFFISLGHDEESSGTGAQRISALLQSRGVQLAFIVDEGGFILDDFIPNFKKPIALIAVSEKGSMNLMLQVNMTSGHSSAPPKETSIGILAAAVSRLEQTPMPIIFGSGTVVTVLQQLANEFPFPVNIILSNPWLFEPLISRFMERNPLTNAIIRTTTALTIFKAGVKFNVIPPVAQATVNFRIHPGQTVQEVLELTKNIVADNRVQFHVLSAFDPLPVSPSDDKALGYQLLRQTVQSVFPEVNITAPVTSIGNTDSRFFTNLTTGIYRFYPIYIQPEDFKRIHGVNEKISVQAYETQVKFIFELIQNADTDQEPVSHLHKL [Q6GTS8]	4.69 ± 0.48	5.33 ± 0.14	28 ± 2	24.4 ± 2.8	
